Results on 18 sequences are retold here after the DeepSol protein solubility set.

This data set can be described thus: soluble on expression in E. coli; label from the status in PepcDB or PDB records.
As to “MTFLDKIKQGCLDGWAKYKILPSLTAAQAILESGWGKHAPHNALFGIKADASWTGKSFNTKTQEEYQAGVITDIVDRFRAYDSWDESIADHGQFLVDNPRYQSVIGEADYKKACHAIKDAGYATASGYAELLIQIIEENNLQKWDKEAIVRKEKQMINSQCREVIEFFINLANAGMGVDKDSFAGWQCADVPCYAAKHWFDVDLWGNAIDLLDSAAAVGWEVHRMPTDANPLTGAFFVQSVPYHQFGHTGIVIEDSDGYTMRTVEQNIDGNPDALYVGAPARFNTRDFTGVIGWFYPPYQGDTVTQPVSTEPQTSETIVETAKTGTFTLDVAEINIRRWPSLASEVVGSYKQGDTVSFDNEGYANGYYWISYVGGSGMRNYLGIGQTDKDGNRISLWGKLNLEHHHHHH”, the “soluble on expression in E. coli” value is given as “soluble”.

As to “MTGLYIHIPFCATRCSYCDFYSQTNSALRSEYIQALIAEMSIRRAEVTDTIGTLYFGGGTPSLLSPQEIGRIIEQVYRLFSFSSDAEITLEANPDDLNTSYVQELRTLPINRISMGAQSFHDEDLHFLNRRHNARQVLEAVDTCRNAGLTNLSIDLIYGLPGQTPARWQENISAVLALSPPHLSAYHLIYEEGTPLTRLLHAGKVREVDEEVSLELFRMLREQLTGAGYEHYEISNFARSGYHSCHNSSYWQDTPYLGLGPSAHSFDGRRTRRSNPSDIRRYIVSMAAGKPLFTEEILTDNDRYNEVVMTRLRTACGLSPDQIGHLFGKESAERCIRTAAPFIRDGLLHEEADGRIRLTEKGIFLSDRIISEFFIV”, the “soluble on expression in E. coli” value was “not soluble”.

For the sequence “MTGSNSHITILTLNINGLNSAIKRHRLASWIKSQDPSVCCIQETHLTCRDTHRLKIKGWRKIYQANGKQKKAGVAILVSDKTDFKPTKIKRDKEGHYIMVKGSIQQEELTILNIYAPNTGAPRFIKQVLSDLQRDLDSHTLIMGDFNTPLSTLDRSTRQKVNKDTQELNSALHQADLIDIYRTLHPKSTEYTYVRVRDGHVSQSKIDHIVGSKALLSKCKRTEIITNYLSDHSAIKLELR”, the “soluble on expression in E. coli” value is “soluble”.

Take “MTGSQEDQPKIIIDQEQPKTLETEHQPEPSSSSPDQKKWGTHVMGAPAAPVAHPDNQQAAAWVAGDNQQTQYQPYVIYSPVEHPTTNNPLEPVIGMFHTWSRKAETVARNLWHNLKTGPSMSETAWGKVNLTAKAITKGGFESLFRQIFGTEPNETLKKTFACYLSTTTGPVAGTVYLSNARVAFCSDRPLYFTAPSGQESWSYYRVVVPLANVATVNPVVVKETPPEKYIQLTTVDGHDFWFMGFVNYEKATHHLLTSVSDFQTAHGSVSG”: the “soluble on expression in E. coli” value is listed as “soluble”.

With “MTGTVSRRKKIAMIGSGMIGGTMGYLCVLRELADVVLFDVVTGMPEGKALDDSQATSIADTNVSVTSANQYEKIAGSDVVIITAGLTKVPGKSDKEWSRNDLLPFNAKIIREVAQGVKKYCPLAFVIVVTNPLDCMVKCFHEASGLPKNMVCGMANVLDSARFRRFIADQLEISPRDIQATVIGTHGDHMLPLARYVTVNGFPLREFIKKGKMTEAKLAEIVERTKKAGGEIVRLLGQGSAYYAPALSAITMAQAFLKDEKRVLPCSVYCQGEYGLHDMFIGLPAVIGGGGIEQVIELELTHEEQECFRKSVDDVVELNKSLAALGPG”, the “soluble on expression in E. coli” value was “soluble”.

“MTHHHHHHAMGPAAGQAYDAGNLDVASSPVKPTLSITKKTLTAAEAPNAKVTMELSVEGAADKYAATGLHIQFDPKLKLIPDEDGALATAGRAARLLELKKAEADTDNSFFTATGSSTNNGKDGVLWSFVLQVPADAQPGDKYDVQVAYQSRTTNEDLFTNVKKDEEGLLMQAWTFTQGIEQGYIQVESTTSLE”: the “soluble on expression in E. coli” value is reported as “soluble”.

Consider “MTHYKDDSYALHTDLYQINMAYTYWKDGIHNRRSVFDLYFRKLPFENGYAVFAGLEKIVEYIENFSFTESDIAYLAELQFEEEFLHYLQNMKFTGTIRSMQEGEVVFNNEPLLRVDAPLGEAQIIETALLNIVNYQTLIATKAARMKHAASNDELLEFGTRRAHEFDAALWGTRAAFIGGFSSTSNVRAGKRFGIPVAGTHAHSFVQAYRDEYVAFKKYAETHKKCVFLVDTYDTLKSGVPNAIRVAKEFGDRIDFYGIRLDSGDMAYLSKKARKLLDEAGFTNTKIIASSDLDEYTIMHLKSQGAKIDVWGVGTKLITSFEQPALGAVYKLVAIEDTDGKLNDTIKISSNPEKITTPGLKRIYRIINRVNDHAEGDYIALDSEEPGKEERLKMFHPVHTYISKFVTNFEARELHKDIFVNGERTYELPSILDIQKYNEQSLSLFWEEYMRTLNPEEYPVDLSQECWDHKMNYIQTVREQVEKNIQK”, for which the “soluble on expression in E. coli” value was “not soluble”.

In the case of “MTHYKYYEANVETNQVLVLLHGFLSDSRTYYNHIDKYTDICHVITIDLPGHGEDQSSMDETWNFDYITTLLDRILDKYKDKSITLFGYSMGGRVALYYAINGHIPISNLILESTSPGIKEEANQLERRLVDDARAKVLDIAGIELFVNDWEKLPLFQSQLELPVEIQHQIRLQRLSQSPQKMAKALRDYGTGQMPNLWPRLKEIKVPTLILAGEYDEKFVQIAKKMANLIPNSKCKLISATGHTIHVEDSDEFDTMILGFLKEEQND”, the “soluble on expression in E. coli” value is reported as “not soluble”.

Regarding “MTIDKLKLNTINLRNTFSNRSKPPISIITSTNKPKYFRNTIKNYTRLNYRYKELILIFNIDNIDIDYYKSYAEKIPNVMVFQLNECYSLGYCLNFGVNQSKYNYIAKMDDDDYYGPNYLTDEINAFNYTDAKIIGKCKYFTYFEDTRDLSINNYSQSYDYTNFIAGGTFLIKKELFKTYKFRDVNMSEDAGFLDDCSSHGIKIYSIDPFNYVYMRHKSLNEHTWKIPTTALKKQYFHFYKTTNYIPIVKILEHHHHHH”, the “soluble on expression in E. coli” value is “not soluble”.

Take “MTIGFLGTGKISASMVDGLMRSVFDVPSIILSPRNAKRAEHLSRNYDKVIIAENNQALLDVCDCVFLCLPNQIAEEVLRSLRFRPEQLVVSVLAMAKAAEVEEWINHKVYRAVPLPFVAECKNLTPIYPDHPFLRSLFDALGGTLVLDAEEQFNLFMTAGSLMGVYFNFIETAHKWFITQGLKKQQSADFLAMMFGNLTDEMRKIMDQDCSTSLDFALLEKEFSTKGGTNELLSHCFSHQGGRSALTTALETTLQKINAPFTY”: the “soluble on expression in E. coli” value was “not soluble”.

With “MTIKVGINGFGRIGRIVFRAAQKRSDIEIVAINDLLDADYMAYMLKYDSTHGRFDGTVEVKDGHLIVNGKKIRVTAERDPANLKWDEVGVDVVAEATGLFLTDETARKHITAGAKKVVMTGPSKDNTPMFVKGANFDKYAGQDIVSNASCTTNCLAPLAKVINDNFGIIEGLMTTVHATTATQKTVDGPSHKDWRGGRGASQNIIPSSTGAAKAVGKVLPELNGKLTGMAFRVPTPNVSVVDLTVRLEKAATYEQIKAAVKAAAEGEMKGVLGYTEDDVVSTDFNGEVCTSVFDAKAGIALNDNFVKLVSWYDNETGYSNKVLDLIAHISK”, the “soluble on expression in E. coli” value was “soluble”.

Consider “MTILNHTLGFPRVGLRRELKKAQESYWAGNSTREELLAVGRELRARHWDQQKQAGIDLLPVGDFAWYDHVLTTSLLLGNVPARHQNKDGSVDIDTLFRIGRGRAPTGEPAAAAEMTKWFNTNYHYMVPEFVKGQQFKLTWTQLLDEVDEALALGHKVKPVLLGPITWLWLGKVKGEQFDRLSLLNDILPVYQQVLAELAKRGIEWVQIDEPALVLELPQAWLDAYKPAYDALQGQVKLLLTTYFEGVTPNLDTITALPVQGLHVDLVHGKDDVVELHKRLPSDWLLSAGLINGRNVWRADLTEKYVQIKDIVGKRDLWVASSCSLLHSPIDLSVETRLDAEVKSWFAFALQKCHELALLCDALNSGDTAALAEWSAPIQARRHSTRVHNPAVEKRLAAITAQDSQRANVYEVRAEAQRARFKLPAWPTTTIGSFPQTTEIRTLRLDFKKGNLDANNYRTGIAEHIRQAIVEQERLGLDVLVHGEAERNDMVEYFGEHLDGFVFTQNGWVQSYGSRCVKPPIVIGDVSRPAPITVEWAKYAQSMTDKPVKGMLTGPVTILCWSFPREDVSRETIAKQIALALRDEVADLEAAGIGIIQIDEPALREGLPLRRSDWDAYLQWGVEAFRINAAVAKDDTQIHTHMCYCEFNDIMDSIAALDADVITIETSRSDMELLESFEEFDYPNEIGPGVYDIHSPNVPSVEWIEALLKKAAKRIPAERLWVNPDCGLKTRGWPETRAALANMVQAAQNLRRG”, for which the “soluble on expression in E. coli” value is listed as “not soluble”.

Take “MTINFRRNALQLSVAALFSSAFMANAADVPQVKVTVTDKQCEPMTITVNAGKTQFIIQNHSQKALEWEILKGVMVVEERENIAPGFSQKMTANLQPGEYDMTCGLLTNPKGKLIVKGEATADAAQSDALLSLGGAITAYKAYVMAETTQLVTDTKAFTDAIKAGDIEKAKALYAPTRQHYERIEPIAELFSDLDGSIDAREDDYEQKAADPKFTGFHRLEKALFGDNTTKGMDQYAEQLYTDVVDLQKRISELAFPPSKVVGGAAGLIEEVAASKISGEEDRYSHTDLWDFQANVEGSQKIVDLLRPQLQKANPELLAKVDANFKKVDTILAKYRTKDGFETYDKLTDADRNALKGPITALAEDLAQLRGVLGLD”: the “soluble on expression in E. coli” value was “soluble”.

As for “MTIQPPSSSSATEFCQPDESTFLVGFNRVRRYGTTQSQSSPVTPCSYTIYQVQTDDTLERIALKHNCSVSSLVRANKLWSPSALFMKQFIRIPIFNSQQPNLKPSLQETQCKIVPATTERVDSSREEKSMKDILQRIDRNIKSFRKCDNPSSSAYDHI”, the “soluble on expression in E. coli” value was “not soluble”.

With “MTIQTVIKENAYFDSVTLMTISTRANELAGVKTAMIGMGTDMNLEVIRNVGLYTPALDHVTTGDLLIVLDLDDQANSEEILQQVDELFTKKKKTASSEVTYKTLDSALHEEPDANLVVISVNGKFAAREAHKALDQQKHVMLFSDNVTVDEELALKQKAHEKELFVMGPDCGTAIINGVGLCFANEVRSGDIGIVGASGTGSQEVSVQIHKYGYGISQLIGTGGRDLSAEIGGLMMLDGLDTLMVDEQTKAILLISKPPAPEVTEKILKKLAVSTKPVVIYFIGSEQTERKIDNVTFATSSLDAVQKVIQFSQTQEAETSLYQNPTGATLTAIQQQQAPSQKFVRGLFCGGTLCDELLYALTEVSDDVYSNIHKISERQLANPDHSQAHTLIDFGDDRFTEGRPHPMIDPTSRITRILQEAKDPEVAVLALDFELGYGSHENPVGVLAEALKEAKAIAKADGRELAIIGYVLGTEEDPQDIHEQRKILEDLEVLVVDSSHQLCEATKTFVKGANEHEQK”, the “soluble on expression in E. coli” value is “not soluble”.

With “MTIRFDNVSYTYQKGTPYQHQAIHDVNTEFEQGKYYAIVGQTGSGKSTLIQNINALLKPTTGTVTVDDITITHKTKDKYIRPVRKRIGMVFQFPESQLFEDTVEREMIFGPKNFKMNLDEAKNYAHRLLMDLGFSRDVMSQSPFQMSGGQMRKIAIVSILAMNPDIIVVDEPTAGLDPQSKRQVMRLLKSLQTDENKAIILISHDMNEVARYADEVIVMKEGSIVSQTSPKELFKDKKKLADWHIGLPEIVQLQYDFEQKYQTKLKDIALTEEAFVSLYKEWQHEK”, the “soluble on expression in E. coli” value is “not soluble”.

On to “MTKENTKSIADDGPYSGSFYGLAEDNANHGIFSSILKRKKRQQDKLSEDVKKRCGRVESYKSCCDRLHQALMYMLVENAVTSKQLVTGARTEPHYRYAGQYLKTYEIIANQGRDKTKYESLEPAIKALLTLDSEHEKKVRKQLENLKPLTKFIGEDYWEYVRLKKVYAESVDGYDEAVVLQNKGKTEDAETAATNAQTWMNDCRTKLMDFITVSISQQKAKHADCVLKFRDESVSYHKIMADSITTPEPAEGKSVVKTLKQ”, for which the “soluble on expression in E. coli” value is reported as “not soluble”.

For “MTKISKIIDELNNQQADAAWITTPLNVYYFTGYRSEPHERLFALLIKKDGKQVLFCPKMEVEEVKASPFTGEIVGYLDTENPFSLYPQTINKLLIESEHLTVARQKQLISGFNVNSFGDVDLTIKQLRNIKSEDEISKIRKAAELADKCIEIGVSYLKEGVTECEVVNHIEQTIKQYGVNEMSFDTMVLFGDHAASPHGTPGDRRLKSNEYVLFDLGVIYEHYCSDMTRTIKFGEPSKEAQEIYNIVLEAETSAIQAIKPGIPLKDIDHIARNIISEKGYGEYFPHRLGHGLGLQEHEYQDVSSTNSNLLEAGMVITIEPGIYVPGVAGVRIEDDILVTNEGYEVLTHYEK”, the “soluble on expression in E. coli” value was “not soluble”.
